Earlier results as cited in article PMC10410519.

Biological target: Growth hormone receptor (Homo sapiens) (UniProt P10912)
Assay: competition

Ki: 3.5 nM
Substance: hGH (from UniProt P01241)
